Data as given in PMC11952669 (Research Square, 2025).

B1: R.nor ACE2 ectodomain (residues 1–741), dimeric (receptor)
chain: QSLIEEKAESFLNKFNQEAEDLSYQSSLASWNYNTNITEENAQKMNEAAAKWSAFYEEQSKIAQNFSLQEIQNATIKRQLKALQQSGSSALSPDKNKQLNTILNTMSTIYSTGKVCNSMNPQECFLLEPGLDEIMATSTDYNRRLWAWEGWRAEVGKQLRPLYEEYVVLKNEMARANNYEDYGDYWRGDYEAEGVEGYNYNRNQLIEDVENTFKEIKPLYEQLHAYVRTKLMEVYPSYISPTGCLPAHLLGDMWGRFWTNLYPLTTPFLQKPNIDVTDAMVNQSWDAERIFKEAEKFFVSVGLPQMTPGFWTNSMLTEPGDDRKVVCHPTAWDLGHGDFRIKMCTKVTMDNFLTAHHEMGHIQYDMAYAKQPFLLRNGANEGFHEAVGEIMSLSAATPKHLKSIGLLPSNFQEDNETEINFLLKQALTIVGTLPFTYMLEKWRWMVFQDKIPREQWTKKWWEMKREIVGVVEPLPHDETYCDPASLFHVSNDYSFIRYYTRTIYQFQFQEALCQAAKHDGPLHKCDISNSTEAGQKLLNMLSLGNSGPWTLALENVVGSRNMDVKPLLNYFQPLFVWLKEQNRNSTVGWSTDWSPYADQSIKVRISLKSALGKNAYEWTDNEMYLFRSSVAYAMREYFSREKNQTVPFGEADVWVSDLKPRVSFNFFVTSPKNVSDIIPRSEVEEAIRMSRGRINDIFGLNDNSLEFLGIYPTLKPPYEPPVTI
notes: also called soluble dimeric R.nor ACE2; R.nor (Rodent) ACE2; source: Expi293F, purified (Ni Sepharose, Superose-6 gel filtration)

Legend:
[1] = molecular target: Biotinylated VsCoV-a7 RBD (residues 356–556) (bat MERSr-CoV VsCoV-a7 (from Vespertilio sinensis)); experiment: BLI
cryo-EM structure = molecular target: the molecule itself; experiment: cryo-EM structure

Molecule | Kd [1] [nM] | binding result (cryo-EM structure)
E.fus ACE2 ectodomain (residues 1–747), dimeric (receptor) | 816 | –
B1 | – | binds
